# B1: antibody 24F7 (antibody, V domains shown)
# VH: QVQLQQSGAELVRPGASVKLSCKASGYTFTDYEMHWVKQTPVHGLEWIGAIDPETGGTAYNQKFKGKATLTADKSSSTAYMELRSLTSEDSAVYYCTREGYSYDGGGYYFDYWGQGTTLTVSS
# VL: QIVLTQSPAIMSASPGEKVTMTCSVSSSVSYMYWYQQKPGSSPRLLIYDTSNLASGVPVRFSGSGSGTSYSLTISRMEAEDAATYYCQQWSSYPTFGGGTKLEIK
# notes: Mouse hybridoma monoclonal antibody; also called parental 24F7 antibody
# B2: antibody hz24F7.v2 (antibody, human IgG1, kappa, N297G, V domains shown)
# VH: QVQLVQSGAEVKKPGASVKVSCKASGYTFTDYEMHWVRQAPGQRLEWMGAIDPETGGTAYNQKFKGRVTITADKSASTAYMELSSLRSEDTAVYYCTREGYSYEGGGYYFDYWGQGTLVTVSS
# VL: DIQMTQSPSSLSASVGDRVTITCSVSSSVSYMYWYQQKPGKAPKLLIYDTSNLASGVPSRFSGSGSGTDFTFTISSLQPEDIATYYCQQWSSYPTFGQGTKLEIKR
# notes: also called humanized variant of 24F7
# Tests used:
# [1] = target: T1, human HTRA1 full length protein (HTRA1-FL) (human, UniProt Q92743 23-480); assay: SPR (Biacore), 37° C.
# T1 construct: also called human HTRA1-FL
# Method: (§1) The binding affinities of anti-HTRA1 antibodies to human HTRA1 were measured using a Biacore system (GE Healthcare Life Sciences). Briefly, anti-Fc antibody (Sigma-Aldrich) was immobilized on all four flow cells of a CMS chip using amine coupling reagents (GE Healthcare LifeSciences). Antibodies were captured on flow cells 2, 3, and 4 using flow cell 1 as a reference. Concentrations ranging from 3.3-10 nM of human delta N-HTRA1 were injected at a flow rate of 50 μL/min at 37° C. Kinetic data were collected over time and fit using the simultaneous global fit equation to yield affinity constants (KD values) for each antibody.
# (§2) The binding affinity of hz24F7.v2 to a HTRA1 full length protein (HTRA1-FL) or a HTRA1-CAT was determined using a Biacore system as described herein and compared with the binding affinity of the parental 24F7 antibody (see Table 9).
# [2] = target: T2, HTRA1 (construct not given) (Homo sapiens (Human), UniProt Q92743 23-480, limits assumed); assay: protease inhibition assay, casein substrate (EnzChek); apparent Ki (Ki^app)
# From the text: (§3) Two enzymatic assays were used to characterize HTRA1 protease activity and evaluate inhibitory activity of anti-HTRA1 antibodies. EnzChek® Protease Assay Kit (ThermoFisher Scientific) was used following the manufacturer's instructions. This kit contains casein protein that is heavily labeled with the pH-insensitive green-fluorescent BOPIPY® FL dye that results in almost total quenching of the conjugate's fluorescence. Protease-catalyzed hydrolysis of labeled casein releases highly fluorescent BODIPY® FL dye-labeled peptides. The concomitant increase in fluorescence is proportional to protease activity.
# Antibodies identified in HTRA1 binding assays were tested for their ability to inhibit HTRA1 protease activity. The range of antibody concentrations was tested to establish a dose response curve and determine IC₅₀ values.
# [3] = target: T2, HTRA1 (construct not stated in the …); assay: cell-based or functional assay
# [4] = target: HTRA1-CAT R197A mutant (human, UniProt Q92743 156-364); assay: ELISA
# Method: (§4) A series of mutated HTRA1-catalytic domain (HTRA1-CAT; amino acids 156-364 of SEQ ID NO:1) proteins containing single amino acid substitutions were generated by standard methods (e.g., site directed mutagenesis). Antibody 24F7 was tested by ELISA for binding to these mutant HTRA1-CAT proteins as well as a wild-type HTRA1 peptide consisting of amino acids […] (SEQ ID NO:92; R190—V201 of SEQ ID NO:1).
# [5] = target: HTRA1-CAT R190A mutant (human, UniProt Q92743 156-364); assay: ELISA
# Method: as §4
# [6] = target: HTRA1-CAT P193A mutant (human, UniProt Q92743 156-364); assay: ELISA
# Method: as §4
# [7] = target: HTRA1-CAT F194A mutant (human, UniProt Q92743 156-364); assay: ELISA
# Method: as §4
# [8] = target: T3, wild-type HTRA1 peptide RKLPFSKREVPV (R190-V201 of SEQ ID NO:1) (human); assay: ELISA
# T3 construct: also called Wild type peptide (R190 - V201)
# T3 peptide: RKLPFSKREVPV
# Method: as §4
# [9] = target: T2, HTRA1 (construct not stated in the …); assay: protease inhibition assay, casein substrate; apparent Ki (Ki^app)
# From the text: as §3
# To confirm that the humanized version of antibody 24F7 retained the ability to inhibit H IRA1 protease activity, hz24F7.v2 was assessed in casein and H2-Opt assays as described herein.
# [10] = target: T2, HTRA1 (construct not stated in the …); assay: SPR (Biacore), 37° C.
# Method: as §1
# (§5) SPR assays were set up using a Biacore system as described herein.
# [11] = target: T2, HTRA1 (construct not stated in the …); assay: SPR (Biacore), 25° C.
# Method: as §1, with “Concentrations ranging from 3.3-10 nM of human delta N-HTRA1 were injected at a flow rate of 50 μL/min at 37° C.” left out
# as §5
# [12] = target: T2, HTRA1 (construct not stated in the …); assay: cell-based or functional assay; remark: listed apart in the source
# [13] = target: endogenously expressed HTRA1 secreted by the human melanoma cell line C32 (human, UniProt Q92743 23-480); assay: cell-based or functional assay
# [14] = target: T2, HTRA1 (construct not stated in the …); assay: protease inhibition assay, H2-Opt peptide substrate; apparent Ki (Ki^app)
# [15] = target: human delta N-HTRA1 (amino acids 156-480 of SEQ ID NO:1) (human, UniProt Q92743 156-480); assay: SPR (Biacore); antibody captured by anti-Fc, human delta N-HTRA1 injected; temperature of this table not stated
# Method: as §1
# [16] = target: T2, HTRA1 (construct not stated in the …); assay: cell-based or functional assay; remark: listed apart in the source
# [17] = target: T2, HTRA1 (construct not stated in the …); assay: cell-based or functional assay; remark: listed apart in the source
# [18] = target: T2, HTRA1 (construct not stated in the …); assay: protease inhibition assay, H2-Opt peptide substrate (FRET); apparent Ki (Ki^app)
# [19] = target: T4, HTRA1-catalytic domain (HTRA1-CAT; amino acids 156-364 of SEQ ID NO:1) (human, UniProt Q92743 156-364); assay: SPR (Biacore), 37° C.
# T4 construct: Wild-type catalytic domain construct; also called HTRA1 catalytic domain protein
# Method: as §1, §2
# [20] = target: T2, HTRA1 (construct not stated in the …); assay: SPR (Biacore), 25° C.; antibody captured; sample stored 2 weeks at pH 7.4, 40° C.
# Method: as §1, with “Concentrations ranging from 3.3-10 nM of human delta N-HTRA1 were injected at a flow rate of 50 μL/min at 37° C.” left out, “antibody. […]” for “antibody.”
# [21] = target: T2, HTRA1 (construct not stated in the …); assay: SPR (Biacore), 25° C.; antibody captured; sample stored 0 weeks at pH 7.4, 40° C.
# Method: as §1, with “Concentrations ranging from 3.3-10 nM of human delta N-HTRA1 were injected at a flow rate of 50 μL/min at 37° C.” left out, “antibody. […]” for “antibody.”
# [22] = target: T2, HTRA1 (construct not stated in the …); assay: cell-based or functional assay; remark: listed apart in the source
# [23] = target: endogenous HTRA1 protein in the serum of the animals dosed with hz24F7.v2 (PK serum samples) (cynomolgus monkey); assay: cell-based or functional assay
# [24] = target: T2, HTRA1 (construct not stated in the …); assay: cell-based or functional assay; remark: listed apart in the source
# [25] = target: T4, HTRA1-catalytic domain (HTRA1-CAT; …); assay: SPR (Biacore), 25° C.; kon at the limit of detection
# [26] = target: T4, HTRA1-catalytic domain (HTRA1-CAT; …); assay: SPR (Biacore), 25° C.; * = Limit of Detection; 25° C.; HTRA1-CAT; kon at limit of detection
# [27] = target: T4, HTRA1-catalytic domain (HTRA1-CAT; …); assay: SPR (Biacore), 37° C.; kon at the limit of detection
# Method: as §1, §2
# [28] = target: T2, HTRA1 (construct not stated in the …); assay: SPR (Biacore); affinity at baseline
# [29] = target: T2, HTRA1 (construct not stated in the …); assay: SPR (Biacore), 25° C.; antibody captured; sample stored 4 weeks at pH 7.4, 40° C.
# Method: as §1, with “Concentrations ranging from 3.3-10 nM of human delta N-HTRA1 were injected at a flow rate of 50 μL/min at 37° C.” left out, “antibody. […]” for “antibody.”
# [30] = target: T2, HTRA1 (construct not stated in the …); assay: cell-based or functional assay; remark: listed apart in the source
# [31] = target: T4, HTRA1-catalytic domain (HTRA1-CAT; …); assay: SPR (Biacore), 25° C.
# [32] = target: T1, human HTRA1 full length protein …; assay: SPR (Biacore), 25° C.
# [33] = target: T2, HTRA1 (construct not stated in the …); assay: SPR (Biacore), 25° C.; antibody captured; sample stored 8 weeks at pH 7.4, 40° C.
# Method: as §1, with “Concentrations ranging from 3.3-10 nM of human delta N-HTRA1 were injected at a flow rate of 50 μL/min at 37° C.” left out, “antibody. […]” for “antibody.”
# [34] = target: T4, HTRA1-catalytic domain (HTRA1-CAT; …); assay: SPR (Biacore), 37° C.; * = Limit of Detection
# Method: as §1, §2
# T4 sequence (Q92743 156-364): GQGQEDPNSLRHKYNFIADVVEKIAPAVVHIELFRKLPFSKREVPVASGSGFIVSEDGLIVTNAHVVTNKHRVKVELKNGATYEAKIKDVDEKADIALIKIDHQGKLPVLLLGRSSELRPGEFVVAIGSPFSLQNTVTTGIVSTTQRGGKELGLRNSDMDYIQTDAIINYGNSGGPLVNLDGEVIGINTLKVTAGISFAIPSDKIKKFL
# Chain of human delta N-HTRA1 (amino acids 156-480 of SEQ ID NO:1) (Q92743 156-480, stated change not applied): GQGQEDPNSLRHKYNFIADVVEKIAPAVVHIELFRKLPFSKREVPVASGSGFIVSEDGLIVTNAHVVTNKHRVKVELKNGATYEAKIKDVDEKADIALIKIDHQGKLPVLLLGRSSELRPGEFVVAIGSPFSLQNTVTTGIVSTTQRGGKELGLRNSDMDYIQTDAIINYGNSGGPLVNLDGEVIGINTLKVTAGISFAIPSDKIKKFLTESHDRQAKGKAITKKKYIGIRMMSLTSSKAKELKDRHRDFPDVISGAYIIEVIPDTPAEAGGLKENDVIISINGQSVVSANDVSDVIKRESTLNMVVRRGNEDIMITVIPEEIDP
# T1 sequence (Q92743 23-480): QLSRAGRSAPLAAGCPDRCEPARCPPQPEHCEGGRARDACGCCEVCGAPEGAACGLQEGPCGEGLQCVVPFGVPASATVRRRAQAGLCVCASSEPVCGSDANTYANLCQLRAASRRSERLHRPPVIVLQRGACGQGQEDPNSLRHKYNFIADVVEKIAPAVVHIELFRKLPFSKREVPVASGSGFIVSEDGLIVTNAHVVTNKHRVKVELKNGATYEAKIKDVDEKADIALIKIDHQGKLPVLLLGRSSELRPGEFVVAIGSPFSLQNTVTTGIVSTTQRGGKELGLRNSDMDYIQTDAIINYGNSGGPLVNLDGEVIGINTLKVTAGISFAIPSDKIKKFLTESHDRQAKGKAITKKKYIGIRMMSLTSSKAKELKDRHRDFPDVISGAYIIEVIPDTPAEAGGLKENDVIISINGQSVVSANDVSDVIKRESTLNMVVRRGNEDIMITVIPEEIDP
# T2 sequence (Q92743 23-480 limits assumed): as the sequence (Q92743 23-480) above
# Chain of HTRA1-CAT P193A mutant (Q92743 156-364 P193A): as the sequence (Q92743 156-364) above, with P38A counted along it
# Chain of HTRA1-CAT R197A mutant (Q92743 156-364 R197A): as the sequence (Q92743 156-364) above, with R42A counted along it
# Chain of HTRA1-CAT F194A mutant (Q92743 156-364 F194A): as the sequence (Q92743 156-364) above, with F39A counted along it
# Chain of endogenously expressed HTRA1 secreted by the human melanoma cell line C32 (Q92743 23-480): as the sequence (Q92743 23-480) above
# Chain of HTRA1-CAT R190A mutant (Q92743 156-364 R190A): as the sequence (Q92743 156-364) above, with R35A counted along it
binder,measurement,setting,value
B1,Kd,[1],0.047 nM
same,koff,[1],8.6e-05 s⁻¹
same,kon,[1],1.8e+06 M⁻¹ s⁻¹
same,Ki,[2],0.054 nM
same,"IC50, Casein Assay",[3],0.35 nM
same,"IC50, H2-Opt Assay",[3],0.17 nM
same,binding result,[4],no binding
same,binding result,[5],no binding
same,binding result,[6],binds
same,binding result,[7],binds
same,binding result,[8],no binding
same,Ki,[9],0.099 nM
same,Kd,[10],0.021 nM
same,koff,[10],8.2e-05 s⁻¹
same,kon,[10],4e+06 M⁻¹ s⁻¹
same,Kd,[11],0.03 nM
same,koff,[11],5e-05 s⁻¹
same,kon,[11],1.6e+06 M⁻¹ s⁻¹
same,"IC50 of inhibition of HTRA1 protease activity, H2-Opt peptide as substrate",[12],0.164 nM
same,"IC50 of inhibition of HTRA1 protease activity, casein as substrate",[12],0.145 nM
same,"IC50 of inhibition of protease activity, EnzChek protease assay with C32 conditioned media",[13],0.118 nM
same,Ki,[14],0.076 nM
same,Kd,[15],0.012 nM
same,koff,[15],8.5e-05 s⁻¹
same,kon,[15],7.4e+06 M⁻¹ s⁻¹
same,"IC50, Protease Assay-Casein substrate",[16],0.15 nM
same,"IC50, Protease Assay-H2-Opt peptide",[16],0.12 nM
same,"IC50 (read off the curve), HTRA1 protease assay, casein substrate 0.05 ug/ml (inverted triangles)",[17],~0.2 nM
same,"IC50 (read off the curve), HTRA1 protease assay, casein substrate 0.1 ug/ml (triangles)",[17],~0.2 nM
same,"IC50 (read off the curve), HTRA1 protease assay, casein substrate 0.2 ug/ml (circles)",[17],~0.2 nM
same,"IC50 (read off the curve), HTRA1 protease assay, casein substrate 0.3 ug/ml (squares)",[17],~0.2 nM
same,Ki,[18],0.118 nM
B2,koff,[19],0.00017 s⁻¹
same,Kd,[1],0.093 nM
same,koff,[1],0.00014 s⁻¹
same,kon,[1],1.5e+06 M⁻¹ s⁻¹
same,"IC50, Casein Assay",[3],0.29 nM
same,"IC50, H2-Opt Assay",[3],0.12 nM
same,Ki,[9],0.086 nM
same,Kd,[20],0.178 nM
same,koff,[20],0.000374 s⁻¹
same,kon,[20],2.1e+06 M⁻¹ s⁻¹
same,Kd,[21],0.213 nM
same,koff,[21],0.000416 s⁻¹
same,kon,[21],1.95e+06 M⁻¹ s⁻¹
same,"IC50, enzyme assay; hz24F7.v2 reference in the S91Y column",[22],0.0645 nM
same,"IC50, enzyme assay; hz24F7.v2 reference in the S92T column",[22],0.0645 nM
same,amount of HTRA1 protein in PK serum samples after IV dosing of hz24F7.v2,[23],~4 fold
same,amount of HTRA1 protein in PK serum samples after IVT dosing of hz24F7.v2,[23],~2 fold
same,IC50 at baseline,[24],0.066 nM
same,Kd,[25],< 0.1 nM
same,kon,[26],≥ 3.9e+06 M⁻¹ s⁻¹
same,Ki,[14],0.067 nM
same,Kd,[27],< 0.1 nM
same,Kd,[28],0.0176 nM
same,koff,[28],0.000225 s⁻¹
same,kon,[28],1.28e+07 M⁻¹ s⁻¹
same,Kd,[29],0.144 nM
same,koff,[29],0.000388 s⁻¹
same,kon,[29],2.68e+06 M⁻¹ s⁻¹
same,"IC50 (read off the curve), HTRA1 enzymatic assay, Hz24F7.v2 standard (dark squares)",[30],~0.1 nM
same,koff,[31],5.6e-05 s⁻¹
same,Kd,[32],0.058 nM
same,koff,[32],4.2e-05 s⁻¹
same,kon,[32],710000 M⁻¹ s⁻¹
same,Kd,[33],0.167 nM
same,koff,[33],0.000502 s⁻¹
same,kon,[33],3.01e+06 M⁻¹ s⁻¹
same,kon,[34],1.1e+07 M⁻¹ s⁻¹

# Reference: patent US20220251241A1 (NGM BIOPHARMACEUTICALS, published 2022)
